From patent publication US10729634B2, “Sex hormone-binding globulin for use as a medicament” (FUNDACIÓ HOSPITAL UNIVERSITARI VALL D'HEBRON—INSTITUT DE …, priority 2013, dated 2020)

Experiments:
[1] = test system: HepG2 hepatoblastoma cells; assay: Lipolysis assay (glycerol release) in HepG2 cells; assay type: cell-based, human; conditions: SHBG 2.5 nM, 10 nM and 50 nM, 16h incubation, vs vehicle control
Protocol: Cell culture experiments. Cell culture reagents were from Life Technologies Inc (Invitrogen SA). HepG2 hepatoblastoma cells (catalog no. HB-8065; ATCC) were maintained in DMEM supplemented with 10% foetal bovine serum (FBS) and antibiotics. For experiments, HepG2 cells were cultured to 60%-80% confluence, cells were washed and incubated with Lipolysis Assay Buffer containing vehicle (control—C), Isoproterenol (positive control—ISO, 3 μM) or SHBG at different final cell culture concentrations (2.5 nM, 10 nM and 50 nM). SHBG was from native human protein purified from healthy human serums (it included the amino acid sequence SEQ ID NO: 1). After 16h incubation, media was collected and glycerol concentration was assessed using a Glycerol Detection Kit (Zenbio).
The data are depicted in FIG. 1, wherein the bars indicate the levels of glycerol (Gly) for each assayed sample. Glycerol is a direct measure of the lipolysis level, since is the product obtained when triglycerides are decomposed chemically or enzymatically to glycerol and fatty acids.

[2] = test system: human SHBG transgenic mice (shbg); assay: High lipid diet in human SHBG transgenic mice vs wild-type; assay type: in vivo; conditions: shbg vs WT mice
Protocol: Wild-type (WT) mice and shbg-mice as in Example 5 were fed with a high lipid diet (50% lipids, from which 46% pig butter and 4% soybean fat) for 8 weeks.
Weight increase along weeks was followed and plotted in FIG. 19 (A), wherein the weight in grams of mice is plotted per week after consumption of the fat diet.
Once mice were sacrificed, visceral adipose tissue (VAT in grams) was analyzed in both animal types. […] VAT was determined as follows: all visceral fat was removed from the animals and it was weighed in a precision balance.

[3] = test system: human SHBG transgenic mice (shbg); assay: High fructose diet in human SHBG transgenic mice vs wild-type; assay type: in vivo; conditions: high fructose diet (76% fructose) for 8 weeks, shbg vs WT mice
Description: For this experiment there were used C57BL/6 mice (WT, controls) and human SHBG transgenic mice (shbg) but not obese.
SHBG transgenic mice were obtained as disclosed above and according to Jänne et al, “Human Sex-Hormone-Binding Globulin Gen Expression in Transgenic Mice”, Molecular Endocrinology—1998, Vol. No. 12 (1), pp: 123-136 (supra).
Wild-type (WT) mice and shbg mice were fed with a high fructose diet. (76% fructose) for 8 weeks. Afterwards, they were sacrificed and liver biopsies were analyzed to see total triglyceride (TG) accumulation in both animal types.
Total triglyceride detection was measured using a triglyceride assay kit (Cat. #K622-100 BioVision) following the manufacturer's instructions.
As in Example 3.4 and following the same protocol, lipogenesis was studied by determining the mRNA and protein levels of acetyl-CoA carboxylase (ACC) and fatty acid synthase (FAS). Data from this analysis are illustrated in FIG. 18, panels (C) and (D).

[4] = test system: shbg-db/db transgenic mice; assay: Obese diabetic db/db mice expressing human SHBG (shbg-db/db) compared with db/db; assay type: in vivo
Description: To shed light to this issue, the inventors developed a unique mouse model that expresses the human SHBG gene and develops obesity, by crossing the human SHBG transgenic mice with the db/db mice.
The human SHBG transgenic mice is the one disclosed by Jänne et al, “Human Sex-Hormone-Binding Globulin Gen Expression in Transgenic Mice”, Molecular Endocrinology—1998, Vol. No. 12 (1), pp: 123-136.
Briefly, these mice were obtained by microinjecting into the pronuclei of a one-cell mouse embryos, a 4.3 kb portion of a human shbg that comprises the 8 exons of the SHBG plus 0.9 kb 5′ of the translation initiation codon in exon 1 and 0.5 kb 3′ from the polyadenylation sequence in exon 8. The one-cell embryos were obtained superovulating CBA×C57BL6 hybrid females with pregnant mare serum and hCG (Sigma Chemical Co. Mississauga, Canada) and mating them with CBA×C57BL6 males. Female CD-1 mice were used to produce pseudopregnant recipients by mating with vasectomized CD-1 males. Injected embryos were implanted into the pseudopregnant recipient mice using a standard protocol. This human transgenic mice over expresses the human shbg gene in vivo. According to Northern blot analysis, the human shbg transcripts are most abundant in liver and kidney. At the cellular level, the human shbg transgenes are expressed in clusters of hepatocytes located mainly within the periportal region of hepatic lobules and in the epithelial cells lining the proximal convoluted tubules of the kidney.
The db/db mice corresponds to the JAX™ Mice Strain: Diabetic Mice db/db (from Charles River; www.criver.com/en-US/Pages/home.aspx). These mice are characterized by having a point mutation in the leptin receptor. In homozygosis the lack of leptin signaling in the hypothalamus will lead to persistent hyperphagia, obesity, type 2 diabetes, dyslipidaemia and fatty liver. In this mice, diabetes (db), which occurred in an inbred strain of mouse, is inherited as a unit autosomal recessive and is characterized by a metabolic disturbance resembling diabetes mellitus in man. Abnormal deposition of fat at 3 to 4 weeks of age is followed shortly by hyperglycemia, polyuria, and glycosuria.
For performing the assays, mice were maintained under standard conditions with food (Global Diet 2018, Harlan Interfauna Iberica, Barcelona, Spain) and water provided ad libitum and a 12 h light/dark cycle. Experimental procedures were approved by the Institutional Animal Use Subcommittees of Hospital Vall d'Hebron Research Institute and the Universitat Autònoma Barcelona.
The mice for experiments in next illustrated assays were of the following four genotypes: • db/+, which means lean mice heterozygous at point mutation in the leptin receptor. • db/db, which means that the mice were homozygous for the point mutation in the leptin receptor and behave a phenotype of persistent hyperphagia, obesity, type 2 diabetes, dyslipidaemia and fatty liver, • shbg-db/+ lean mice heterozygous at point mutation in the leptin receptor and expressing the shbggene • shbg-db/db, which means that the they over-expressed shbg gene in the manner disclosed above and at the same time they had the phenotype of the homozygous db/db mice in relation to hyperphagia, obesity, type 2 diabetes, dyslipidaemia and fatty liver.
Histology and Immunohistochemistry: For morphological studies, 3 animals of each genotype (db/+, db/db, shbg4-db/+ and shbg4-db/db) were used. Livers and adipose tissue were fixed in 4% paraformaldehyde for 24 h and embedded in paraffin. Serial 5-μm thick sections were used for histological examination and stained with hematoxylin-eosin (H&E).
For immunohistochemistry studies, the paraffin sections were de-waxed and incubated at high power in a microwave oven for 10 min in citrate buffer, pH 6.6. The sections were then cooled at room temperature for 20 min and treated with a 0.03% hydrogen peroxide solution for 7 min, prior to incubation (overnight at 4° C.) with rabbit antibodies against F4/80. […]

[5] = adipose tissue, shbg-db/db vs db/db mice
[6] = shbg-db/db vs db/db mice, 4 to 12 weeks of age
[7] = shbg-db/db vs db/db mice, relative to 18S mRNA
[8] = shbg-db/db vs db/db mice, sacrificed at 6 weeks
[9] = shbg-db/db vs db/db mice, western blot

B1: SHBG: native human protein purified from healthy human serums (included SEQ ID NO: 1); in mice and HepG2 expressed from human shbg transgene/vector (protein, listed as Homo sapiens)
chain: MESRGPLATSRLLLLLLLLLLRHTRQGWALRPVLPTQSAHDPPAVHLSNGPGQEPIAVMTFDLTKITKTSSSFEVRTWDPEGVIFYGDTNPKDDWFMLGLRDGRPEIQLHNHWAQLTVGAGPRLDDGRWHQVEVKMEGDSVLLEVDGEEVLRLRQVSGPLTSKRHPIMRIALGGLLFPASNLRLPLVPALDGCLRRDSWLDKQAEISASAPTSLRSCDVESNPGIFLPPGTQAEFNLRDIPQPHAEPWAFSLDLGLKQAAGSGHLLALGTPENPSWLSLHLQDQKVVLSSGSGPGLDLPLVLGLPLQLKLSMSRVVLSQGSKMKALALPPLGLAPLLNLWAKPQGRLFLGALPGEDSSTSFCLNGLWAQGQRLDVDQALNRSHEIWTHSCPQSPGNGTDASH
lipolysis (glycerol concentration in medium) [1]: increased the lipolysis in HepG2 cells (in a dose-dependent manner) | visceral adipose tissue (VAT) ([2]; high lipid diet (50% lipids) for 8 weeks): wild-type mice had a greater visceral adipose tissue than transgenic animals | body weight along weeks ([2]; high lipid diet (50% lipids)): always a lower weight than wild-type mice | obesity ([2]; high lipid diet (50% lipids)): Protects Against Obesity | fatty liver disease [3]: Protects Against Fatty Liver Disease | triglyceride amount in liver [3]: higher in WT mice than in the transgenic ones (shbg) | Adiponectin mRNA levels [4, 5]: increased significantly | IL6 mRNA levels [4, 5]: reduced in shbg-db/db mice when compared with db/db mice but it was not statistically significant | IL-1β mRNA levels [4, 5]: significantly reduced | TNF-α mRNA levels [4, 5]: significantly reduced | Triglyceride amounts in liver ([4]; genotype shbg-db/+ (lean mice expressing human SHBG), db/+ control 74.99 ± 4.17): 88.88 ± 12.84 Nmol TGs/tissue g | Triglyceride amounts in liver ([4]; genotype shbg-db/db (obese mice expressing human SHBG), db/db control 421.92 ± 58.6): 314.64 ± 41.37 Nmol TGs/tissue g | macrophage infiltration (F4/80 immunohistochemistry) ([4]; liver and adipose tissue, shbg-db/db vs db/db mice): less macrophage infiltration in both liver and adipose tissue | hepatic lipogenesis ([4]; shbg-db/db vs db/db mice): Reducing Hepatic Lipogenesis | inflammation ([4]; shbg-db/db vs db/db mice): Lowers Inflammation | blood glucose levels [4, 6]: not Blood Glucose Levels | weight gain (body weight) [4, 6]: Reduces Weight Gain | hepatic steatosis ([4]; shbg-db/db vs db/db mice, liver histology): Reduces | liver ACC mRNA levels [4, 7]: significantly lower | liver FAS mRNA levels [4, 7]: significantly lower | adipocyte size [4, 8]: Reduces | adipose tissue weight (VAT) [4, 8]: Reduces Adipose Tissue Weight | liver weight [4, 8]: Reduces Liver Weight | liver ACC protein levels [4, 9]: reduced ACC protein levels | liver FAS protein levels [4, 9]: significantly lower FAS protein levels
